Experimental data taken from patent US20030152571A1.
pKd: −log10 of the molar value.

Columns and labels:
[1] = biological target: human vitronectin receptor αvβ3 purified from human placenta (human) (UniProt P06756); assay: competition: 1 ug/ml αvβ3 preincubated with unlabeled antibody, then binding of 1 ug/ml D12
[2] = biological target: rabbit αvβ3 receptor on rabbit smooth muscle cells (rabbit); assay: cell-based or functional assay
[3] = biological target: human vitronectin receptor αvβ3 purified from human placenta (human) (UniProt P06756); assay: BIAcore, αvβ3 immobilized in a hybrid bilayer membrane on the sensor surface, mAb in solution
[4] = biological target: human vitronectin receptor αvβ3 purified from human placenta (human) (UniProt P06756); assay: ORIGEN competition: αvβ3-biotin (1 ug/ml) preincubated with unlabeled antibody, then 1 ug/ml Tag-LM609
[5] = biological target: human vitronectin receptor αvβ3 purified from human placenta (human) (UniProt P06756); assay: BIAcore; αvβ3 in a hybrid bilayer membrane on the sensor, mAb at 100, 25, 6 nM in triplicate
[6] = biological target: human vitronectin receptor αvβ3 purified from human placenta (human) (UniProt P06756); assay: BIAcore; immobilized αvβ3, mAb in solution

% Inhibition at 0.1 ug/ml [1]: 3%
% Inhibition at 1 ug/ml [1]: 29%
% Inhibition at 10 ug/ml [1]: 68%
Inhib (%) R-SMC (50 mg/ml) [2]: 43%
koff [3]: 0.00051 s⁻¹
kon [3]: 1.1e+06 M⁻¹ s⁻¹
% Inhibition at 0.1 ug/ml [4]: 3%
% Inhibition at 1 ug/ml [4]: 41%
% Inhibition at 10 ug/ml [4]: 79%
pKd [5]: 9.34
pKd [6]: 8.42
Substance: murine monoclonal antibody LM609
